Test results: patent US20060078622A1, “Pharmaceutical formulations containing microparticles or nanoparticles of a delivery agent” (priority 2004, published 2006)
Several values for one entry are separate records, joined by “and”; a condition that tells them apart may be missing. Equal values may be shown once. Read-outs that look alike come from different tables or passages of the source.

Legend:
[1] = Insulin and 4-CNAB stability in simulated gastric fluid (HPLC); details: 37° C.
Experimental: The SGF was prepared with and without pepsin, a gastric enzyme. SGF pH 1.2 was prepared as per the USP NF 26 guidelines. 2 g sodium chloride and 3.2 g of pepsin were weighed and added to a suitable container, and deionized water was added to reach one liter in volume. If necessary, the pH was adjusted to 1.2 by addition of concentrated HCl or NaOH. A second SGF solution omitting the pepsin was also prepared.
Four 50 ml samples of SGF (two with pepsin and two without) were placed into a jacketed vessel connected to a circulating water bath set at 37° C. The solutions were stirred with magnetic stir bars for ten minutes to allow the solutions to reach 37° C. and reach thermal equilibrium.
The term “% of theoretical” as used herein, means the percent of the concentration (mg/mL) of withdrawn solution at the time-point the sample was taken as compared to the theoretical concentration (mg/mL) of the measuring component for experiment. The standard of deviation for the HPLC analysis is ±5%.

Glucose = Glucose after subcutaneous (SC) administration of insulin; format: in vivo, rat
[2] = IV
Excerpt: (§1) This value was assumed to be constant in the estimates of absolute bioavailability.

[3] = Estimates of bioavailability (absolute, portal, relative to subcutaneous)
Excerpt: as §1
The portal bioavailability provides an estimate of drug absorption from oral delivery. […] This value is used to estimate bioavailability relative to subcutaneous.

[4] = Stability of insulin in simulated intestinal fluid (HPLC); details: for stability of insulin / Insulin % of theoretical: 37° C.
Experimental: The SIF solutions were prepared with and without pancreatic enzyme. SIF pH 7.5 was prepared as per the USP NF 26 guidelines. SIF was prepared by addition of 6.8 g monobasic potassium phosphate and 10 g of pancreatin into a suitable vessel, and deionized water was added to reach a total volume of one liter. If necessary, the pH was adjusted to 7.5 by addition of 0.2 N sodium hydroxide. A second SIF solution omitting the pancreatin, an intestinal enzyme, was also prepared.
Four 50 ml samples of SIF (two with pancreatin and two without) were placed into a jacketed vessel connected to a circulating water bath set at 37° C. The solutions were stirred with magnetic stir bars for ten minutes to allow the solutions to reach 37° C. and reach thermal equilibrium.

[5] = dose 8 μg/kg, individual animals
[6] = dose 9 μg/kg, individual animals

Question: For Insulin: Recombinant human zinc insulin, which insulin degraded ([1]; SGF containing pepsin, first sampling point) is on record?
Answer: 97%

Question: And the insulin remained ([1]; SGF containing pepsin, first sampling point (0 minutes))?
Answer: 3.0%

Question: And the “Insulin % of theoretical” value ([1]; SGF no enzymes, with 4-CNAB, 30 minutes)?
Answer: 105.7%

Question: What about the “Insulin % of theoretical” value ([1]; SGF no enzymes, with 4-CNAB, 24 h) of the same substance?
Answer: 0%

Question: What about the “Insulin % of theoretical” value ([1]; SGF with pepsin, with 4-CNAB, 0 minutes) of the same substance?
Answer: 3.0%

Question: What about the “Insulin % of theoretical” value ([1]; SGF with pepsin, without 4-CNAB, 0 minutes) of the same substance?
Answer: 3.0%

Question: And the “Insulin % of theoretical” value ([1]; SGF without enzymes, without 4-CNAB, 10 minutes)?
Answer: 100.4%

Question: What about the “Insulin % of theoretical” value ([1]; SGF without enzymes, without 4-CNAB, 30 minutes) of the same substance?
Answer: 100.1%

Question: What about the “Insulin % of theoretical” value ([1]; SGF without enzymes, without 4-CNAB, 1 h) of the same substance?
Answer: 99.4%

Question: And the “Insulin % of theoretical” value ([1]; SGF without enzymes, without 4-CNAB, 24 h)?
Answer: 0%

Question: And the “time insulin is stable” value ([1]; SGF without pepsin)?
Answer: ≥ 2 h

Question: What about the Glucose (Glucose; study 3, 0.05 mg/kg, time 0) of the same substance?
Answer: 83 mg/dL

Question: What about the Glucose (Glucose; study 3, 0.05 mg/kg, time 15) of the same substance?
Answer: 66 mg/dL

Question: What about the Glucose (Glucose; study 3, 0.05 mg/kg, time 30) of the same substance?
Answer: 60 mg/dL

Question: And the Glucose (Glucose; study 3, 0.05 mg/kg, time 45)?
Answer: 61 mg/dL

Question: And the Glucose (Glucose; study 3, 0.05 mg/kg, time 60)?
Answer: 73 mg/dL

Question: And the Glucose (Glucose; study 3, 0.05 mg/kg, time 120)?
Answer: 98 mg/dL

Question: And the Glucose (Glucose; study 3, 0.05 mg/kg, time 180)?
Answer: 105 mg/dL

Question: What about the Glucose (Glucose; study 4, 0.05 mg/kg, time 0) of the same substance?
Answer: 73 mg/dL

Question: And the Glucose (Glucose; study 4, 0.05 mg/kg, time 15)?
Answer: 66 mg/dL

Question: What about the Glucose (Glucose; study 4, 0.05 mg/kg, time 30) of the same substance?
Answer: 59 mg/dL

Question: What about the Glucose (Glucose; study 4, 0.05 mg/kg, time 45) of the same substance?
Answer: 64 mg/dL

Question: And the Glucose (Glucose; study 4, 0.05 mg/kg, time 60)?
Answer: 72 mg/dL

Question: And the Glucose (Glucose; study 4, 0.05 mg/kg, time 90)?
Answer: 88 mg/dL

Question: What about the Glucose (Glucose; study 4, 0.05 mg/kg, time 120) of the same substance?
Answer: 110 mg/dL

Question: What about the Glucose (Glucose; study 5, 0.05 mg/kg, time 0) of the same substance?
Answer: 60 mg/dL

Question: What about the Glucose (Glucose; study 5, 0.05 mg/kg, time 15) of the same substance?
Answer: 42 mg/dL

Question: And the Glucose (Glucose; study 5, 0.05 mg/kg, time 30)?
Answer: 38 mg/dL

Question: And the Glucose (Glucose; study 5, 0.05 mg/kg, time 45)?
Answer: 42 mg/dL

Question: What about the Glucose (Glucose; study 5, 0.05 mg/kg, time 60) of the same substance?
Answer: 48 mg/dL

Question: And the Glucose (Glucose; study 5, 0.05 mg/kg, time 90)?
Answer: 52 mg/dL

Question: What about the Glucose (Glucose; study 5, 0.05 mg/kg, time 120) of the same substance?
Answer: 66 mg/dL

Question: And the Glucose (Glucose; study 6, 0.05 mg/kg, time 0)?
Answer: 68 mg/dL

Question: What about the Glucose (Glucose; study 6, 0.05 mg/kg, time 15) of the same substance?
Answer: 40 mg/dL

Question: What about the Glucose (Glucose; study 6, 0.05 mg/kg, time 30) of the same substance?
Answer: 39 mg/dL

Question: What about the Glucose (Glucose; study 6, 0.05 mg/kg, time 45) of the same substance?
Answer: 36 mg/dL

Question: And the Glucose (Glucose; study 6, 0.05 mg/kg, time 60)?
Answer: 32 mg/dL

Question: What about the Glucose (Glucose; study 6, 0.05 mg/kg, time 90) of the same substance?
Answer: 35 mg/dL

Question: What about the Glucose (Glucose; study 6, 0.05 mg/kg, time 120) of the same substance?
Answer: 39 mg/dL

Question: What about the Glucose (Glucose; study 7, 0.05 mg/kg, time 0) of the same substance?
Answer: 65 mg/dL

Question: And the Glucose (Glucose; study 7, 0.05 mg/kg, time 15)?
Answer: 45 mg/dL

Question: What about the Glucose (Glucose; study 7, 0.05 mg/kg, time 30) of the same substance?
Answer: 39 mg/dL

Question: What about the Glucose (Glucose; study 7, 0.05 mg/kg, time 45) of the same substance?
Answer: 40 mg/dL

Question: And the Glucose (Glucose; study 7, 0.05 mg/kg, time 60)?
Answer: 42 mg/dL

Question: What about the Glucose (Glucose; study 7, 0.05 mg/kg, time 90) of the same substance?
Answer: 42 mg/dL

Question: And the Glucose (Glucose; study 7, 0.05 mg/kg, time 120)?
Answer: 50 mg/dL

Question: What about the Glucose (Glucose; study 8, 0.05 mg/kg, time 0) of the same substance?
Answer: 70 mg/dL

Question: And the Glucose (Glucose; study 8, 0.05 mg/kg, time 15)?
Answer: 59 mg/dL

Question: And the Glucose (Glucose; study 8, 0.05 mg/kg, time 30)?
Answer: 64 mg/dL

Question: What about the Glucose (Glucose; study 8, 0.05 mg/kg, time 45) of the same substance?
Answer: 69 mg/dL

Question: What about the Glucose (Glucose; study 8, 0.05 mg/kg, time 60) of the same substance?
Answer: 73 mg/dL

Question: And the Glucose (Glucose; study 8, 0.05 mg/kg, time 90)?
Answer: 89 mg/dL

Question: And the Glucose (Glucose; study 8, 0.05 mg/kg, time 120)?
Answer: 106 mg/dL

Question: And the “AUC0->∞” value ([2]; dose 8 μg/kg, X ± SD (n = 3))?
Answer: 100.7 ± 2.4 ng·min/mL

Question: And the “AUC0->∞/Dose” value ([2]; dose 8 μg/kg, X ± SD (n = 3))?
Answer: 0.0126 ± 0.0003 kg·min/mL

Question: What about the Vd ([2]; dose 8 μg/kg, X ± SD (n = 3)) of the same substance?
Answer: 0.157 ± 0.005 L/kg

Question: What about the “AUC0->∞” value [2, 5] of the same substance?
Answer: 99.35 ng·min/mL and 99.32 ng·min/mL and 103.4 ng·min/mL

Question: And the “C0->∞/Dose” value [2, 5]?
Answer: 0.0063 kg/mL and 0.0066 kg/mL and 0.0062 kg/mL

Question: What about the Co [2, 5] of the same substance?
Answer: 50.67 ng/mL and 52.64 ng/mL and 49.63 ng/mL

Question: And the Vd [2, 5]?
Answer: 0.15788 L/kg and 0.15198 L/kg and 0.16119 L/kg

Question: And the kel [2, 5]?
Answer: 0.51 min⁻¹ and 0.53 min⁻¹ and 0.48 min⁻¹

Question: And the “AUC0->∞” value ([2]; dose 9 μg/kg, X ± SD (n = 3))?
Answer: 99.4 ± 23.6 ng·min/mL

Question: What about the “AUC0->∞/Dose” value ([2]; dose 9 μg/kg, X ± SD (n = 3)) of the same substance?
Answer: 0.0110 ± 0.0026 kg·min/mL

Question: And the Co ([2]; dose 9 μg/kg, X ± SD (n = 3))?
Answer: 46.1 ± 9.5 ng/mL

Question: And the Vd ([2]; dose 9 μg/kg, X ± SD (n = 3))?
Answer: 0.201 ± 0.043 L/kg

Question: And the kel ([2]; dose 9 μg/kg, X ± SD (n = 3))?
Answer: 0.47 ± 0.02 min⁻¹

Question: And the “AUC0->∞” value [2, 6]?
Answer: 99.55 ng·min/mL and 75.67 ng·min/mL and 122.89 ng·min/mL

Question: And the “C0->∞/Dose” value [2, 6]?
Answer: 0.0052 kg/mL and 0.0040 kg/mL and 0.0061 kg/mL

Question: And the Co [2, 6]?
Answer: 46.79 ng/mL and 36.32 ng/mL and 55.30 ng/mL

Question: And the Vd [2, 6]?
Answer: 0.19235 L/kg and 0.2478 L/kg and 0.16275 L/kg

Question: What about the kel [2, 6] of the same substance?
Answer: 0.47 min⁻¹ and 0.48 min⁻¹ and 0.45 min⁻¹

Question: What about the “AUC0->∞/Dose” value ([2]; dose […], X ± SD (n = 5)) of the same substance?
Answer: 0.0062 ± 0.0011 kg·min/mL

Question: And the Vd ([2]; dose […], X ± SD (n = 5))?
Answer: 0.219 ± 0.068 L/kg

Question: And the “C0->∞/Dose” value ([2]; Average over all doses (2.5, 8, 9 μg/kg))?
Answer: 0.0053 kg/mL

Question: And the BA ([3]; SC (subcutaneous) dosing)?
Answer: 55.67%

Question: And the absolute bioavailability ([3]; SC administration, rat model)?
Answer: approximately 56%

Question: What about the “maximum absolute bioavailability of insulin” value ([3]; from oral delivery or any other 100% GI absorption into the portal vein, from intraportal results, rat model) of the same substance?
Answer: approximately 60%

Question: And the stability of insulin ([4]; SIF in presence of the enzyme (pancreatin))?
Answer: degrades

Question: What about the “Insulin % of theoretical” value ([4]; SIF no enzymes, with 4-CNAB, 0 minutes) of the same substance?
Answer: 100.2%

Question: What about the “Insulin % of theoretical” value ([4]; SIF no enzymes, with 4-CNAB, 4 minutes) of the same substance?
Answer: 106.3%

Question: What about the “Insulin % of theoretical” value ([4]; SIF no enzymes, with 4-CNAB, 45 minutes) of the same substance?
Answer: 99.1%

Question: What about the “Insulin % of theoretical” value ([4]; SIF no enzymes, with 4-CNAB, 24 hours) of the same substance?
Answer: 105.6%

Question: What about the “Insulin % of theoretical” value ([4]; SIF with pancreatin, with 4-CNAB, 0 minutes) of the same substance?
Answer: 58.9%

Question: And the “Insulin % of theoretical” value ([4]; SIF with pancreatin, with 4-CNAB, 4 minutes)?
Answer: 19.3%

Question: What about the “Insulin % of theoretical” value ([4]; SIF with pancreatin, with 4-CNAB, 6 minutes) of the same substance?
Answer: 5.4%

Question: And the “Insulin % of theoretical” value ([4]; SIF without 4-CNAB or enzymes, 0 minutes)?
Answer: 92.9%

Question: What about the “Insulin % of theoretical” value ([4]; SIF without 4-CNAB or enzymes, 15 minutes) of the same substance?
Answer: 92.7%

Question: What about the “Insulin % of theoretical” value ([4]; SIF without 4-CNAB or enzymes, 1 hour) of the same substance?
Answer: 92.7%

Question: And the “Insulin % of theoretical” value ([4]; SIF without 4-CNAB or enzymes, 2 hours)?
Answer: 94.6%

Question: What about the “Insulin % of theoretical” value ([4]; SIF without 4-CNAB or enzymes, 24 hours) of the same substance?
Answer: 100.4%

Question: What about the stability of insulin ([4]; SIF without pancreatin) of the same substance?
Answer: stable

Question: And the insulin remained ([4]; SIF, first sampling time point (0 minutes))?
Answer: 58.9% and 66.9%
